The text below walks through data of the supplement of paper PMC12042874.

A short description of this series: amyloid nucleation score (Sup35N fusion, yeast selection) (log enrichment); library NNK2; higher = more nucleation; inactive = no reads after selection. The method in brief:
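After 24 hours of induction with 100 μM copper sulfate, psi-negative yeast expressing peptides of 20 random codons fused to Sup35N were grown for 7 days at 30°C on medium lacking adenine and uracil. Input and output plasmid inserts were sequenced with Illumina, and sequences with under 100 input reads were discarded. Scores for nucleation are the DiMSum log enrichment of output over input reads, centred on the mode score of non-aggregating sequences.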

± gives the uncertainty stated by the source.

For the substance IGTYWYVKLWRYSYVYPYLD, the amyloid nucleation score is 0.665 ± 0.57.
As for KIRNSGG, the figure is 0.747 ± 0.56; as for ACWKRMN, “inactive”; as for TVSMLLGRRCVRFRVMVRVG, 4.79 ± 0.05.
As for TCDWLKAFIAWF, the figure is 1.53 ± 0.3.
The result for PTSDMWSCNNL reads 0.961 ± 0.81.
Turning to QELYSDLPRPSGSPLQLWAK, the amyloid nucleation score was -0.246 ± 0.76.
As for TLPSPIRYRVNTNNRM, the figure is 0.397 ± 0.54.
The result for SNGYGRLAQLVGGWRDTKGG reads 0.398 ± 0.29; that for PKKSVGKLNIILEVLPSTAV, -0.666 ± 0.53; that for CTTFSFADIEFVMKRTRAIL, “inactive”.
As for INQHEPFPPGVVLKVHKTL, the figure is -0.021 ± 0.34; as for MYNENRLLSSFNSVCCMLWG, 9.787 ± 0.078.
Regarding DYIDKPELLSVLGTRQMKCF, the amyloid nucleation score was 0.241 ± 0.35.
As for SQITYVFYFRRGFIMLMWWE, the figure is -0.323 ± 0.79; as for FYVYFVCEKIES, -0.076 ± 0.79; as for NLHEMLIGHGRQVRR, 1.42 ± 0.36.
ACNLRAVYFT yielded an amyloid nucleation score of -1.47 ± 0.39.
The result for YFKFAGV reads 4.16 ± 0.095.
Take QRHAVWGSSGDLTYELIGSL: the amyloid nucleation score entry was “inactive”.
The result for RFPCRLLRASLFP reads -0.636 ± 0.45; that for VTGYGSLYYGVKTRG, -0.295 ± 0.55.
Consider IEYWRSGVMELGHVVSYRDI, for which the amyloid nucleation score was found to be 0.102 ± 0.77.
As to MQMLIYGWSMCFILGAQV, the amyloid nucleation score stood at 0.479 ± 0.74.
In the case of GRTGFFYLGAKYVSHEGAGK, the amyloid nucleation score entry was “inactive”.
As for TGVLCGSYFFWLF, the figure is 5.15 ± 0.058; as for VKSMFLYTASSADPERGVYG, -1.27 ± 1.1; as for MNKCIWGIYYR, -1.6 ± 1.1.
TQLLQHGGGFRSRISSRLGR had an amyloid nucleation score of 1.21 ± 0.41.
The result for IDFQVVWSIFLENSKKHSTR reads 0.213 ± 0.8; that for FNRVDDMCGPWCENWLNGQT, -1.23 ± 1.1; that for VYTHSGIVY, -0.82 ± 0.62.
As for RKTLLLKTRACPSPLFWLDT, the entry is “inactive”; as for SVCMRIKFWSPAPDAEHEKA, 6.614 ± 0.056.
As for TYRLDSWITGSRLV, the figure is -0.555 ± 0.76; as for RYGLLYSTSLACWFGS, 4.36 ± 0.058.
The substance VLISSKYLIQSVDYILLNGP had an amyloid nucleation score of -0.217 ± 0.29.
The result for AYYYTVLYYSFNMFRFVYTW reads “inactive”; that for LRLGRLPFMRSISVTCKNEL, 1.91 ± 0.32; that for CQTHPYYVICFQAVKKCWES, -0.899 ± 0.56.
ILWNLNY gave an amyloid nucleation score of -0.596 ± 0.4.
GYASTSKAKISAIRAIRP returned an amyloid nucleation score of 0.339 ± 0.31.
The result for GTTMTPFPRKCFRSVILFVG reads 1.1 ± 0.3.
QCDVSRGAFEGFPYVYMEMW: the amyloid nucleation score was -1.4 ± 0.62.
Regarding YTWSSYD, the amyloid nucleation score was -1.14 ± 0.36.
In the case of SCQENICENWFWLLHD, the amyloid nucleation score is -0.321 ± 0.45.
The result for TDLASKAS reads -0.194 ± 0.48; that for SRSSGTDFMYFDRFLPTRWA, -0.805 ± 1.1; that for CPLPIVSFKTLINLNMMYKS, -0.269 ± 0.43.
The result for YVVTYLRRRTLLAGSCISNY reads 0.164 ± 0.8; that for FSNVLRFSIA, -1.27 ± 0.45; that for YVIVVGWPR, 9.408 ± 0.073.
The result for VANDLQPWLRAVHSCFWYSS reads 0.896 ± 0.17; that for HLMLRKGLVKCWVQTVVGSG, 1.48 ± 0.33; that for SNSGMTVKCNYVYSFVTGKS, 0.816 ± 0.21.
As for QCQRLSWRCMWCGMSLYQYD, the amyloid nucleation score stood at 3.98 ± 0.048.
As for VDILG, the figure is -0.094 ± 1; as for FLSDNVISAY, -0.543 ± 0.38; as for MRSNWYGNVCVVTSNCDGLG, 0.837 ± 0.48.
Substance VNFFNLINRRGTPNRWFYAS returned an amyloid nucleation score of 0.201 ± 1.
Regarding GSYSNAIFIHKLKNKHCFQS, the amyloid nucleation score entry was “inactive”.
TGFGLMHGLAGKCCLRFFIT: the amyloid nucleation score is -0.116 ± 0.35.
The result for VVLTHY reads 0.386 ± 0.34.
As for CGDQSVFERYETRRNLGL, the figure is 0.21 ± 0.63; as for NMLVVFNAPYYSL, 7.811 ± 0.049.
DPVSYILDWASRGNS returned an amyloid nucleation score of 0.523 ± 0.64.
Consider DFMIKSISVLFTVSISSNRV, for which the amyloid nucleation score was -1.69 ± 0.73.
Turning to ISEIQDLLGSALTH, the amyloid nucleation score was 2.09 ± 0.079.
As for ELFYDLSQTCQMCF, the figure is -0.759 ± 0.64; as for ISDMS, -0.416 ± 0.28; as for SELHGCYFHVHRRHRYRGYY, -0.015 ± 0.61.
The result for IFCNTLCQIGFRRNVKASGN reads -0.104 ± 0.5.
Take RLIDCVVVRVFINNVMLPAY: the amyloid nucleation score was found to be 5.45 ± 0.056.
As for GHGKPTGYYGDYENQTVLY, the figure is -0.25 ± 0.61; as for MKGAKGDNFCIMV, “inactive”; as for SVICELLQDRFTSLHGMYGY, 0.119 ± 0.31.
The substance LVLYGFYVTSDLRWSLSWKM registered an amyloid nucleation score of 0.766 ± 0.2.
The result for DIRSRINMLRYTFF reads “inactive”.
The substance VEGRYAPKRSYVTPGWDV came in with an amyloid nucleation score of -0.05 ± 0.55.
The result for YCSQAYHAGRRSALEQDSCM reads 0.734 ± 0.81.
VVFFNGACALATLAAVSLGP yielded an amyloid nucleation score of 6 ± 0.062.
The result for RECQHF reads -0.077 ± 0.74; that for LVGFALGSDTLISRY, -0.221 ± 1.1.
For FNMHI, the amyloid nucleation score came out at 0.8 ± 0.8.
Take NINDEPPNNHMMHTITHKWT: the amyloid nucleation score result is “inactive”.
As for QTNCETCVFNNTFELMLHQS, the figure is 4.37 ± 0.087; as for MLESWFMY, -0.154 ± 0.49.
The result for TVRLFFLG reads 3.98 ± 0.11; that for NSLNI, -0.127 ± 1.1.
The substance PKFLSFADSAFLICCRAIVF displayed an amyloid nucleation score of 6 ± 0.08.
The result for CLRVVCLRGLFYYANSACQV reads -0.199 ± 0.54; that for VYENKIA, 0.313 ± 0.47.
On to ETEGKGRWKD, for which the amyloid nucleation score result is “inactive”.
For the substance DCNTCKDKPWNAINQPNKKA, the amyloid nucleation score stood at 0.121 ± 0.23.
On to NSLNSMVYYEYFYFLVYVCG, for which the amyloid nucleation score was -0.015 ± 0.49.
The result for AKYIPHAVLKASPTVGIILV reads -0.54 ± 1.1.
As for IDDDIFVMCCIEKHVLVCEF, the figure is 3.26 ± 0.047; as for KCGRWPANAVYWHDTLSCAC, 0.231 ± 0.31; as for ARVCPCETTSTTVVA, 1.23 ± 0.48.
As for RHYLRRCEEDNCHPKYFVRY, the amyloid nucleation score is -0.439 ± 0.76.
The result for LSLFSYPLHAPFLTMVSWPY reads -0.78 ± 0.78.
With ELLHFSSISTS, the amyloid nucleation score entry was “inactive”.
The substance APENGFRFWLVNHNAVHMIL came in with an amyloid nucleation score of -0.21 ± 0.79.
As for CGVIKHPLSGYYKRASMLCN, the figure is -1.52 ± 1.1.
WAQSNISETSYHVGSLLSVA came in with an amyloid nucleation score of 0.016 ± 0.32.
IWRSRKLHDMYTVVRGVASD registered an amyloid nucleation score of 0.182 ± 0.56.
As for VFAWRN, the amyloid nucleation score was -0.347 ± 1.1.
As for VVMLVRT, the figure is 3.87 ± 0.064; as for CNMGLRYTSYLI, -0.212 ± 0.34.
Turning to HEKGIKVVQGGQVYGITVEV, the amyloid nucleation score is 0.093 ± 0.39.
As for SKNYSSWPNPHMIQGLLGSM, the figure is -0.735 ± 0.3; as for ALDHSV, -0.271 ± 1; as for VGPVNQRWGVTISLAPEVCF, 0.553 ± 0.57.
As for GEYISEGDCTCRLQRMVVIE, the figure is -0.025 ± 0.76.
The result for GFWITVESNNTYNRFLDISC reads 2.67 ± 0.089; that for GVIKWKRQETLNHSWGSESE, 5.24 ± 0.072; that for MVSLIPEMHFNVMLEKVACA, 0.562 ± 0.81.
Substance SVHRERWMFYIFVCTLVVRG yielded an amyloid nucleation score of 0.056 ± 0.43.
As for LYVFLLCNITLTSPLFNLLF, the figure is 3.92 ± 0.1; as for VCGQILDYWFVYT, 0.264 ± 0.23; as for VFINRFHRVMLRAVIRQGVV, 0.31 ± 0.5.
As for LLDSPEWWYVLCATNWVYYM, the figure is 2.88 ± 0.096; as for LSEMYTFCEDSRAFTVYWTF, -1.02 ± 0.45; as for TVCSIMASFQYRDSRRQRSG, 4.02 ± 0.078.
As for NGDSGG, the figure is 1.02 ± 0.16; as for ILTGILSLVAYASSPGAPCG, 2.45 ± 0.22; as for MSTLRRLRSRNRRFVNFVWG, -0.019 ± 0.33.
TCARSVYDNLSLINLTRG registered an amyloid nucleation score of 1.73 ± 0.1.
The result for HCNCHRIVYLECVLPYIHCI reads -0.919 ± 0.55; that for NFMNSP, -0.33 ± 1.1.
In turn, YIRLATYSLYALDWAVRKNR showed an amyloid nucleation score of -0.548 ± 1.1.
As for SFLSKSWY, the figure is 1.18 ± 0.17; as for NLNFDPGVLF, “inactive”; as for YSCRIDF, 0.8 ± 0.54.
As for PMSYLVWVSDFYLLRGGS, the figure is 0.019 ± 1.1.
Consider RMFWISNKVSIPGPGLEAGN, for which the amyloid nucleation score entry is “inactive”.
For the substance ADDFINVNDTNKTVLCMCCG, the amyloid nucleation score was -0.61 ± 0.78.
As for SRSQPVICWNTWFVTWYESS, the figure is 8.914 ± 0.075; as for QYHCPS, -0.616 ± 0.5.
As for CKPAVPMLN, the figure is 2.49 ± 0.076.
As for NFIRDSMVTCRYEKDLGA, the figure is 0.713 ± 0.8.
